This passage reports phosphorylation enrichment and SH2 binding enrichment results from the supplement of paper PMC10065799, “High-throughput profiling of sequence recognition by tyrosine kinases and SH2 domains using bacterial peptide display” (eLife, 2023).

In data set [1] the target is FGFR1 (UniProt P11362). Kind of data set: phosphorylation enrichment, bacterial display (enrichment ratio); higher = better substrate or ligand; peptides without Tyr show the background.
Data set [2] concerns the target EPHB2 (UniProt P29323). Described as above.
The target in data set [3] is Fes (UniProt P07332). The data set is described as above.
The subject of data set [4] is c-Abl (mouse). Described as above.
Data set [5] concerns the target EPHB1 (UniProt P54762). The data set is described as above.
Data set [6] concerns Fer (mouse). Described as above.
Data set [7] deals with AncSZ. The data set is described as above.
Data set [8] addresses Fyn (UniProt P06241). The description is as above.
For data set [9], the target named is MERTK (UniProt Q12866). Described as above.
The target in data set [10] is Jak2 (UniProt O60674). The description is as above.
The target of data set [11] is Hck (UniProt P08631). Described as above.
Data set [12] addresses FGFR3 (UniProt P22607). The data set is described as above.
Data set [13] deals with c-Src. The data set is described as above.
Data set [14] has as its target Grb2 SH2 (UniProt P62993). In words: SH2 binding enrichment of the phosphorylated peptide, bacterial display (enrichment ratio); higher = better substrate or ligand; peptides without Tyr show the background.
Data set [15] addresses SHP2-C SH2. Described as above.
In data set [16] the target is c-Src SH2. The data set is described as above.
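For SH2 binding enrichment of the phosphorylated peptide, bacterial display in this document: peptide library displayed on the E. coli surface as eCPX fusions, selected cells deep-sequenced, score is each peptide's frequency after selection divided by its frequency in the input.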
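For phosphorylation enrichment, bacterial display in this document: 11-residue human phosphosite peptides and single-mutation variants displayed on the E. coli surface, counted by deep sequencing, each peptide's frequency after selection divided by its frequency in the unselected input library; frequency after pTyr selection over input frequency; kinase dosed for 20-30% of maximal phosphorylation in three min.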

Sequence of Fyn (P06241 whole entry, looked up): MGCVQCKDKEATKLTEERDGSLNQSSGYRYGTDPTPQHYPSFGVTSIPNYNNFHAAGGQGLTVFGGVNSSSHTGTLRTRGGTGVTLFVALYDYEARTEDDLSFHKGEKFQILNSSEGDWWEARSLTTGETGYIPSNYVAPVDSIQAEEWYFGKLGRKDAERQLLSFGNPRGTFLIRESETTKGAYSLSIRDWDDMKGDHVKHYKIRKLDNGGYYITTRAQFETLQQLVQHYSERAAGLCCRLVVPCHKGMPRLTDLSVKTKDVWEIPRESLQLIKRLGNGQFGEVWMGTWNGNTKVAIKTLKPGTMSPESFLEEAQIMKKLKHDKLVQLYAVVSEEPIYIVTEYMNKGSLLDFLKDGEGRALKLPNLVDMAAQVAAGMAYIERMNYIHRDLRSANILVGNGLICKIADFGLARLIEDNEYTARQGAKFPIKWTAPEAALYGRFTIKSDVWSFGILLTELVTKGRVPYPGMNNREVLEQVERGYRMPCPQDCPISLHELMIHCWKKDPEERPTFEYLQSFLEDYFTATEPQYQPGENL
Sequence of FGFR3 (P22607 whole entry, looked up): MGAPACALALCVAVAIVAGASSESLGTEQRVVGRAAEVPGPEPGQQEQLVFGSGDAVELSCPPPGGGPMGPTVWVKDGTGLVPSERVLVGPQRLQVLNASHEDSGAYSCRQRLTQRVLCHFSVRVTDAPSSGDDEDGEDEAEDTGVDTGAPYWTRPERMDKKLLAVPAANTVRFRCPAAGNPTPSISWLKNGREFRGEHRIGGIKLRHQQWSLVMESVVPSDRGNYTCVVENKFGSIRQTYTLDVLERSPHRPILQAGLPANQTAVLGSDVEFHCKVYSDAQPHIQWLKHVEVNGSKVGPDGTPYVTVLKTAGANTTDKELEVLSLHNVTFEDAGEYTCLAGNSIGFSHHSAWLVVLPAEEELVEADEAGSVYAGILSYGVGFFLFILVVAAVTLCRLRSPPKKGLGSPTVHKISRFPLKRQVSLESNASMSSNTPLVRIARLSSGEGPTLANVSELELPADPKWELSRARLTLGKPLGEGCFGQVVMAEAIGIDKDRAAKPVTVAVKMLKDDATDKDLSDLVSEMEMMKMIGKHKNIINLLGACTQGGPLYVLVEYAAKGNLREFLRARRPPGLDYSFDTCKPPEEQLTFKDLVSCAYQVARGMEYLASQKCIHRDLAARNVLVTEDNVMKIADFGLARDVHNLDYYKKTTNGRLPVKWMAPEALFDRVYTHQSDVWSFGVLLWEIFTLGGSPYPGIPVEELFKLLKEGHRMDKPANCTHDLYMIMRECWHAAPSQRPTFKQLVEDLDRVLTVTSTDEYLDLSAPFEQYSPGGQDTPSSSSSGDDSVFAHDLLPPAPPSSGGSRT
Sequence of Jak2 (O60674 whole entry, looked up): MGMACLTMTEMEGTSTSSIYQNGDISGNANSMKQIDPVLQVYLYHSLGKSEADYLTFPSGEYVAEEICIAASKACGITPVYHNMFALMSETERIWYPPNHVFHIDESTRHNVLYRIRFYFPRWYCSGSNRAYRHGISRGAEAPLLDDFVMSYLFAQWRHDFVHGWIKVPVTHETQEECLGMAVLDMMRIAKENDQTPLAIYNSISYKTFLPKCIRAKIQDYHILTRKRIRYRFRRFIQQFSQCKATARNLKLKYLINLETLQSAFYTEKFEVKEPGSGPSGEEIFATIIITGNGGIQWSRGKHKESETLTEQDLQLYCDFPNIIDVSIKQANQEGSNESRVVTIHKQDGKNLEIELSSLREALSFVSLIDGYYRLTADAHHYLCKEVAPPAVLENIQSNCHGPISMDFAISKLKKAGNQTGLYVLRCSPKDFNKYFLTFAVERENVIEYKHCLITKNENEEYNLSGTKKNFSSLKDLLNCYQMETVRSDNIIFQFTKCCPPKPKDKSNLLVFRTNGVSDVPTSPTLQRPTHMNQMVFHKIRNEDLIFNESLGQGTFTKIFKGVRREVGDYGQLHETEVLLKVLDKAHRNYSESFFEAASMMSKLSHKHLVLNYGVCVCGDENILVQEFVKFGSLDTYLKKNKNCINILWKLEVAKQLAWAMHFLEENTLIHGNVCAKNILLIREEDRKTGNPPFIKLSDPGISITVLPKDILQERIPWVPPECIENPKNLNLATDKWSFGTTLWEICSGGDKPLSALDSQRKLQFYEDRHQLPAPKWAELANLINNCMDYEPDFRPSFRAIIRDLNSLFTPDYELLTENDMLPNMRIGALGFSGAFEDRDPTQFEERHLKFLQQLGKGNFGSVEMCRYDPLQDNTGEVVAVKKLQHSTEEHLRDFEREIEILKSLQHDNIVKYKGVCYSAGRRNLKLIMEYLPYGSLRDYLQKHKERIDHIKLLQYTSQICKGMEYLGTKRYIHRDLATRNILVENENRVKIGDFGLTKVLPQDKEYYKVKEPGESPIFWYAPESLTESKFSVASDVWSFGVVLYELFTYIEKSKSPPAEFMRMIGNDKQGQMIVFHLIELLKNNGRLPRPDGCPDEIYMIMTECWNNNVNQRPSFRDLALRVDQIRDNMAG
Sequence of EPHB2 (P29323 whole entry, looked up): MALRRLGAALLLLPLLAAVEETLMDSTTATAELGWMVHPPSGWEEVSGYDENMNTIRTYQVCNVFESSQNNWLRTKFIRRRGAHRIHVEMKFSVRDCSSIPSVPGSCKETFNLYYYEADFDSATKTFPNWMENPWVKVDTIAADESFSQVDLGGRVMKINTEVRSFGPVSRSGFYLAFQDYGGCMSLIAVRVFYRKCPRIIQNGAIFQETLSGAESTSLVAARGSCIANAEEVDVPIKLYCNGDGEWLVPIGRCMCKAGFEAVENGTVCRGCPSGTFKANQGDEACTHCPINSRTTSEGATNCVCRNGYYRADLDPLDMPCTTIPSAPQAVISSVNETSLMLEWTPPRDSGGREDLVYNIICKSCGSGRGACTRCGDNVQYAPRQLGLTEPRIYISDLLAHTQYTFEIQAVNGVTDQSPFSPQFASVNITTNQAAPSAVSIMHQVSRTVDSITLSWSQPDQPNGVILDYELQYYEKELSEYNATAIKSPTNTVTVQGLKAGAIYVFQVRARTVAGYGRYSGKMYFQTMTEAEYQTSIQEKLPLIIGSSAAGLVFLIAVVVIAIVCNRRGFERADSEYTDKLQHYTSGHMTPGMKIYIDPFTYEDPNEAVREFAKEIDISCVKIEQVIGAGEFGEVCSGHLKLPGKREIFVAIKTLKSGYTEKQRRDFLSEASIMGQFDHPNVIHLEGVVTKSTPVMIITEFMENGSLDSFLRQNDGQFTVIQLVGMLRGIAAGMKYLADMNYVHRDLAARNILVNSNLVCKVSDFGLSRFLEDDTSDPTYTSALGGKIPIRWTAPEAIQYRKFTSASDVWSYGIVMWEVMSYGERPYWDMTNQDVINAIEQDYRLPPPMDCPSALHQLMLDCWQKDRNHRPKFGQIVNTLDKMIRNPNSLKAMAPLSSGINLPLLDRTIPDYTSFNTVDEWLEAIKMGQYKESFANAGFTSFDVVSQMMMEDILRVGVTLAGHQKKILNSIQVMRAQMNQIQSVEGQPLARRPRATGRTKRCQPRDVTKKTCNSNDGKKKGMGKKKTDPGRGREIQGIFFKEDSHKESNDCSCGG
Sequence of Fes (P07332 whole entry, looked up): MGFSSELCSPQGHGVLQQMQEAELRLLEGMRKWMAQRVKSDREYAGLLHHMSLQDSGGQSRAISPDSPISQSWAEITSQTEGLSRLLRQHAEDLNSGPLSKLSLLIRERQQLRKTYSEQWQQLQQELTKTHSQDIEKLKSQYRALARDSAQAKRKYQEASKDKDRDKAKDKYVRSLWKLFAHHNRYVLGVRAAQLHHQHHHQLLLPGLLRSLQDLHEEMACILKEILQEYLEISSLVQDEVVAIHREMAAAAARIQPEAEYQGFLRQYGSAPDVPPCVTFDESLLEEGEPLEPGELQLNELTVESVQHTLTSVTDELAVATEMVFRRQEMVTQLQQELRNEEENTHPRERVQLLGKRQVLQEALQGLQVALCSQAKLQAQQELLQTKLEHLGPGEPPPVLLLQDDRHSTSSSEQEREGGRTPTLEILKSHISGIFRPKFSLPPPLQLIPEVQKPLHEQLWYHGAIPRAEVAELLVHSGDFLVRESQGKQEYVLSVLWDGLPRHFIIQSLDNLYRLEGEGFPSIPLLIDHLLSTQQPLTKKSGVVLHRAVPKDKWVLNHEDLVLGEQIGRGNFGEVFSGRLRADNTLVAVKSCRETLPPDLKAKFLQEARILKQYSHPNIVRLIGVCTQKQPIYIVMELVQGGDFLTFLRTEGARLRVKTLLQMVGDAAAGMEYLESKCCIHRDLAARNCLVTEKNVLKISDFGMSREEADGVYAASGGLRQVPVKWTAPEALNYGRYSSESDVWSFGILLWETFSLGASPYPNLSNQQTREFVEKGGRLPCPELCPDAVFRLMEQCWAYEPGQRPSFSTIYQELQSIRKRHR
Sequence of Grb2 SH2 (P62993 whole entry, looked up): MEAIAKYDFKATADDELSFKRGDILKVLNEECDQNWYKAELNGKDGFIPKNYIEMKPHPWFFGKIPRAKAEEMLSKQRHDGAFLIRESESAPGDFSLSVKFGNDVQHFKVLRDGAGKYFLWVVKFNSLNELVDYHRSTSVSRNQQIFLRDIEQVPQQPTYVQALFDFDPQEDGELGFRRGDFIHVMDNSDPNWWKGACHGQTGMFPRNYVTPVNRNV

With RIDRKYKKVRF [F8_Y442_G439D], the phosphorylation enrichment amounted to 0.72 in data set [1]; 0.807 in data set [2]; 1 in [3]; 1.3 in data set [4]; 0.761 in data set [5]; 0.934 in data set [6]. For the same sequence, the phosphorylation enrichment in data set [7] amounted to 1.25; in data set [8] it was 0.849; in data set [9], 1.19; in data set [10] it was 2.67; in [11], 1.05; in data set [12], 0.922. Further, the phosphorylation enrichment in data set [13] worked out at 1.32. In addition, the SH2 binding enrichment in data set [14] turned out to be 1.17; in [15], 0.665; in [16], 0.656.

Turning to TISPFYCQSLF [CRYAA_Y48_R49C_YF], the phosphorylation enrichment is 0.535 in data set [1]; 0.579 in data set [2]; 1.2 in [3]; 0.768 in data set [4]; 0.682 in data set [5]; 0.837 in data set [6]. Besides, the phosphorylation enrichment in data set [7] is 1.05; in [8], 0.571; in [9], 1.8; in data set [10], 0.992; in data set [11] it was 0.643; in data set [12], 0.723. The phosphorylation enrichment in data set [13] stood at 0.516. Besides, the SH2 binding enrichment in [14] was 0.912; in data set [15], 0.707; in data set [16], 0.632.
